# Measurements taken from patent US20140017253A1 (ONCOMED PHARMACEUTICALS, published 2014).
# T1: human RSPO3 (recombinant, R&D Systems) (human, UniProt Q9BXY4 22-272)
# T1 sequence: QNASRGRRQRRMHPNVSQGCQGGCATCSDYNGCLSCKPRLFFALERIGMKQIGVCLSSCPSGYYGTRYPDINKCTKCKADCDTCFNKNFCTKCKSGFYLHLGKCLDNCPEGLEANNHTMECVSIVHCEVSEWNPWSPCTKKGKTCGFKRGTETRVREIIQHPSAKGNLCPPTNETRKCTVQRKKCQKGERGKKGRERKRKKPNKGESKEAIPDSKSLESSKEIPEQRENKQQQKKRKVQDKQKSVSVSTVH
# T2: LGR5-Fc fusion protein (human, UniProt O75473 22-564)
# T2 construct: range 22-564; Expressed in insect cells with baculovirus, purified on protein A; also called soluble LGR5-Fc; not shown: human Fc
# T2 sequence (looked up): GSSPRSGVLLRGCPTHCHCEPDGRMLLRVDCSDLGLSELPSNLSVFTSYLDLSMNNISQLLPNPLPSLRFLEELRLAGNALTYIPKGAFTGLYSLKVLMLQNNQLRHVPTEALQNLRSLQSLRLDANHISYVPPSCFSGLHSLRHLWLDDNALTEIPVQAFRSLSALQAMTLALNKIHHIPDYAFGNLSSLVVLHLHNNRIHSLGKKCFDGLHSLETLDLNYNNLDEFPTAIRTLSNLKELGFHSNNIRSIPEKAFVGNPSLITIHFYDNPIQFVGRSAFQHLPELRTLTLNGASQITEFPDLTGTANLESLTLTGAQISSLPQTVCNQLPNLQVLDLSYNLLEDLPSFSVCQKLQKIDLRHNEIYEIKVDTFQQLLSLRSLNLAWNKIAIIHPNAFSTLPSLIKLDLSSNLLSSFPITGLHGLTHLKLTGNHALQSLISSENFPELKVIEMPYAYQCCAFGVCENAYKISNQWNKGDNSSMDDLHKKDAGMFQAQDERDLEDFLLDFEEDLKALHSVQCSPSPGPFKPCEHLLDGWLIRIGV
# T3: recombinant human RSPO3 protein, biotinylated (human, UniProt Q9BXY4 22-272, biotinylated (sites not given))
# T3 sequence: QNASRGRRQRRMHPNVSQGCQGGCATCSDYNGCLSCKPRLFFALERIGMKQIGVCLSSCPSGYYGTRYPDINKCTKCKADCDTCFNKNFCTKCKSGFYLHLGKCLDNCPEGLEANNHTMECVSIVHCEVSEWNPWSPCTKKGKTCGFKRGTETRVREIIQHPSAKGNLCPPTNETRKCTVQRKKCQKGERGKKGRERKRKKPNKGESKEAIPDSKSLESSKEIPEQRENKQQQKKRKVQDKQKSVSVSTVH
# Experiments:
# [1] = molecular target: T1, human RSPO3 (recombinant, R&D Systems); test: SPR (Biacore 2000), antibody captured by goat anti-human IgG on CM5 chip, human RSPO3 injected 300-37.5 nM
# Method: The method used was different than described in Example 3. A goat anti-human IgG antibody was coupled to a carboxymethyl-dextran (CM5) SPR chip using standard amine-based chemistry (NHS/EDC) and blocked with ethanolamine. Antibodies (purified antibody or culture supernatant) were diluted to a concentration of 10 μg/ml in HBS-P-BSA (0.01M HEPES pH7.4, 0.15M NaCl, 0.005% v/v Polysorbate 20, 100 μg/ml BSA) and captured onto the chip via the anti-human IgG antibody. […] After each antigen injection 5 μl of 100 mM H₃PO₄ was injected to remove the antigen-antibody complex and a subsequent injection performed. Kinetic data were collected over time and were fit using the simultaneous global fit equation to yield affinity constants (KD values) for each antibody (Table 4).
# LGR5-Fc fusion protein = molecular target: T2, LGR5-Fc fusion protein; test: SPR (Biacore 2000), RSPO-Fc amine-coupled to CM5 chip, soluble LGR5-Fc injected 100-0.78 nM
# Method: Binding affinities between RSPO proteins and LGR5 were analyzed by surface plasmon resonance. A soluble LGR5-Fc construct was generated using standard recombinant DNA techniques. Specifically, amino acids 1-564 of human LGR5 were ligated in frame to human Fc and the recombinant LGR5-Fc fusion protein was expressed in insect cells using baculovirus. The LGR5-Fc fusion protein was purified from the insect medium using protein A chromatography. Cleavage of the LGR5 signal sequence results in a mature LGR5-Fc fusion protein containing amino acids 22-564 of LGR5. […] Two-fold dilutions of soluble LGR5-Fc were injected over the chip surface (100 nM to 0.78 nM). Kinetic data were collected over time using a Biacore 2000 system from Biacore Life Sciences (GE Healthcare) and the data were fit using the simultaneous global fit equation to yield affinity constants (KD values) for each RSPO protein (Table 3).
# [2] = molecular target: T3, recombinant human RSPO3 protein, …; test: SPR (Biacore 2000), biotinylated human RSPO3 captured on streptavidin chip, antibody injected 100-0.78 nM
# Method: The antibodies were serially diluted 2-fold from 100 nM to 0.78 nM in HBS-P (0.01M HEPES pH 7.4, 0.15M NaCl, 0.005% v/v Surfactant P20) and were injected over the chip surface. Kinetic data were collected over time and were fit using the simultaneous global fit equation to yield affinity constants (KD values) for each antibody.
Kd [1],Kd (LGR5-Fc fusion protein),Kd [2],Binder
0.654 nM,–,–,"humanized anti-RSPO3 antibody h131R007 (antibody, human IgG2, kappa, IgG2; also called h131R005/131R007; h131R005) heavy: QVQLVQSGAEVKKPGASVKVSCKASGYTFTDYSIHWVRQAPGQGLEWIGYIYPSNGDSGYNQKFKNRVTMTRDTSTSTAYMELSRLRSEDTAVYYCATYFANNFDYWGQGTTLTVSSASTKGPSVFPLAPCSRSTSESTAALGCLVKDYFPEPVTVSWNSGALTSGVHTFPAVLQSSGLYSLSSVVTVPSSNFGTQTYTCNVDHKPSNTKVDKTVERKCCVECPPCPAPPVAGPSVFLFPPKPKDTLMISRTPEVTCVVVDVSHEDPEVQFNWYVDGVEVHNAKTKPREEQFNSTFRVVSVLTVVHQDWLNGKEYKCKVSNKGLPAPIEKTISKTKGQPREPQVYTLPPSREEMTKNQVSLTCLVKGFYPSDIAVEWESNGQPENNYKTTPPMLDSDGSFFLYSKLTVDKSRWQQGNVFSCSVMHEALHNHYTQKSLSLSPGK light: not shown"
1.3 nM,–,8.2 nM,"anti-RSPO3 antibody 131R002 (antibody, human IgG2, kappa, V domains shown, Same light chain as 131R003; also called 131R002 (IgG2)) VH: QVQLQESGPELVKPGASVKISCKASGYTFTDYSIHWVKQNHGKSLDWIGYIYPSNGDSGYNQKFKNRATLTVDTSSSTAYLEVRRLTFEDSAVYYCATYFANYFDYWGQGTTLTVSS VL: DIVLTQSPASLAVSLGQRATISCKASQSVDYDGDSYMNWYQQKPGQPPKLLIYAASNLESGIPARFSGSGSGTDFTLNIHPVEEEDAATYYCQQSNEDPLTFGAGTKLELKR"
–,73 nM,–,"RSPO4-Fc fusion protein (Fc fusion, not shown: a dimerising Fc or GST; small tags and cut ends, Full-length human RSPO4 ligated in-frame to a human Fc region, expressed in insect cells) NRRKKQVGTGLGGNCTGCIICSEENGCSTCQQRLFLFIRREGIRQYGKCLHDCPPGYFGIRGQEVNRCKKCGATCESCFSQDFCIRCKRQFYLYKGKCLPTCPPGTLAHQNTRECQGECELGPWGGWSPCTHNGKTCGSAWGLESRVREAGRAGHEEAATCQVLSESRKCPIQRPCPGERSPGQKKGRKDRRPRKDRKLDRRLDVRPRQPGLQP"
–,< 1 nM,–,"RSPO3-Fc fusion protein (Fc fusion, Full-length human RSPO3 ligated in-frame to a human Fc region, expressed in insect cells; not shown: human Fc region) QNASRGRRQRRMHPNVSQGCQGGCATCSDYNGCLSCKPRLFFALERIGMKQIGVCLSSCPSGYYGTRYPDINKCTKCKADCDTCFNKNFCTKCKSGFYLHLGKCLDNCPEGLEANNHTMECVSIVHCEVSEWNPWSPCTKKGKTCGFKRGTETRVREIIQHPSAKGNLCPPTNETRKCTVQRKKCQKGERGKKGRERKRKKPNKGESKEAIPDSKSLESSKEIPEQRENKQQQKKRKVQDKQKSVSVSTVH"
0.686 nM,–,–,"humanized anti-RSPO3 antibody h131R011 (antibody, human IgG2, kappa, V domains shown, IgG2; also called h131R011 (IgG2)) VH: QVQLVQSGAEVKKPGASVKVSCKASGYTFTDYSIHWVRQAPGQGLEWIGYIYPSNGDSGYNQKFKNRVTMTRDTSTSTAYMELSRLRSEDTAVYYCATYFANNFDYWGQGTTLTVSS VL: DIQMTQSPSSLSASVGDRVTITCKASQSVDYDGDSYMNWYQQKPGKAPKLLIYAASNLESGVPSRFSGSGSGTDFTLTISPVQAEDFATYYCQQSNEDPLTFGAGTKLELKR"

# Second part, the binder before the results:
Binder,Kd [1],Kd (LGR5-Fc fusion protein),Kd [2]
"RSPO1-Fc fusion protein (Fc fusion, not shown: human Fc region) SRGIKGKRQRRISAEGSQACAKGCELCSEVNGCLKCSPKLFILLERNDIRQVGVCLPSCPPGYFDARNPDMNKCIKCKIEHCEACFSHNFCTKCKEGLYLHKGRCYPACPEGSSAANGTMECSSPAQCEMSEWSPWGPCSKKQQLCGFRRGSEERTRRVLHAPVGDHAACSDTKETRRCTVRRVPCPEGQKRRKGGQGRRENANRNLARKESKEAGAGSRRRKGQQQQQQQGTVGPLTSAGPA",–,110 nM,–
"RSPO2-Fc fusion protein (Fc fusion, Full-length human RSPO2 ligated in-frame to a human Fc region, expressed in insect cells; not shown: human Fc region) QGNRWRRSKRASYVSNPICKGCLSCSKDNGCSRCQQKLFFFLRREGMRQYGECLHSCPSGYYGHRAPDMNRCARCRIENCDSCFSKDFCTKCKVGFYLHRGRCFDECPDGFAPLEETMECVEGCEVGHWSEWGTCSRNNRTCGFKWGLETRTRQIVKKPVKDTIPCPTIAESRRCKMTMRHCPGGKRTPKAKEKRNKKKKRKLIERAQEQHSVFLATDRANQ",–,14 nM,–
"anti-RSPO3 antibody 131R003 (antibody, human IgG2, kappa, V domains shown, Same light chain as 131R002; also called parental 131R003; 131R003 (IgG2)) VH: QVQLKQSGPELVKPGASVKISCKASGYTFTDYSIHWVKQNHGKSLDWIGYIYPSNGDSGYNQKFKNRATLTVDTSYSTAYLEVRRLTFEDSAVYYCATYFANYFDYWGQGTTLTVSS VL: DIVLTQSPASLAVSLGQRATISCKASQSVDYDGDSYMNWYQQKPGQPPKLLIYAASNLESGIPARFSGSGSGTDFTLNIHPVEEEDAATYYCQQSNEDPLTFGAGTKLELKR",1.9 nM,–,7.3 nM
"131R003CDR3 variant (antibody, human IgG2, kappa, V domains shown, also called 131R003 CDR3 variant (IgG2); 131R003 Heavy chain - Variant 1) VH: QVQLKQSGPELVKPGASVKISCKASGYTFTDYSIHWVKQNHGKSLDWIGYIYPSNGDSGYNQKFKNRATLTVDTSYSTAYLEVRRLTFEDSAVYYCATYFANNFDYWGQGTTLTVSS VL: DIVLTQSPASLAVSLGQRATISCKASQSVDYDGDSYMNWYQQKPGQPPKLLIYAASNLESGIPARFSGSGSGTDFTLNIHPVEEEDAATYYCQQSNEDPLTFGAGTKLELKR",1.7 nM,–,–
